In PMC11261967, “The retrotransposon-derived capsid genes PNMA1 and PNMA4 maintain reproductive capacity” (Research Square, 2024):

Molecular target: the molecule itself
Test: SEC + other: negative stain transmission electron microscopy; Ni-purified His-tagged protein run over Superose 6 Increase HiScale (80 ml); void (high molecular weight) fractions visualised by negative stain TEM (2% uranyl acetate), 2D classes in cryoSPARC; self-assembly into capsid-like particles

Protein | binding result
recombinant mouse PNMA4, His-tagged (natural protein, UniProt Q9ERH6 1-352, looked up, PNMA4 (also called MOAP-1 or MAP-1), mouse, full-length Pnma4 cloned into the first cassette of a modified pET-Duet plasmid; The modified pET-Duet encodes a C-terminal 3C protease cut site followed by the His tag; no cleavage is described; also called MOAP-1; MAP-1; source: E. coli LOBSTR (RIL plasmid), purified (Ni-Sepharose, Superose 6 size exclusion; void fractions collected); not shown: His …) MTLRLLEDWCRGMDMNPRKALLVAGIPPTCGVADIEEALQAGLAPLGEHRLLGRMFRRDENKNVALIGLTVETGSALVPKEIPAKGGVWRVIFKPPDTDSDFLCRLNEFLKGEGMTMGELTRVLGNRNDPLGLDPGIMIPEIRAPMLAQALNEALKPTLQYLRYKKLSVFSGRDPPGPGEEEFESWMFHTSQVMKTWQVSDVEKRRRLIESLRGPAFEIIRVLKINNPFITVAECLKTLETIFGIIDNPRALQVKYLTTYQKTDEKLSAYVLRLEPLLQKLVQKGAIEKEVVNQARLDQVIAGAVHKSVRRELGLPEGSPAPGLLQLLTLIKDKEAEEEEVLLQAELEGYCT | binds
recombinant mouse PNMA1, His-tagged (natural protein, UniProt Q8C1C8 1-353, looked up, PNMA1, mouse, full-length Pnma1 cloned into the first cassette of a modified pET-Duet plasmid; The modified pET-Duet encodes a C-terminal 3C protease cut site followed by the His tag; no cleavage is described; source: E. coli LOBSTR (RIL plasmid), purified (Ni-Sepharose, Superose 6 size exclusion; void fractions collected); not shown: His tag, C-terminal, kept) MAMTLLEDWCRGMDVNSQRALLVWGIPVNCDETEIEETLQAAMPQVSYRVLGRMFWREENAKAALLELTGAVDYSLIPREMPGKGGLWKVVFKPPTSDAVFLERLHLFLAREGWTVQDVARVLGFQNPAPAPGPEMPAEMLNYILDNVIQPLVESIWYKKLTLFSGKDIPGPGEETFDSWLEHSNEIIEEWQVSDIEKRRRLMESLRGPAADVIRILKTNNAAITTAECLKALEQVFGSVESSRDAQVRFLNTYQNPGEKLSSYVIRLEPLLQKVVDKGVIDKDNVNQARLEQVIAGANHSGALRRQLWLAGAEEGPAPNLFQLLVQIREEEAKKEEEEAEAALLQLGLEGHF | binds
